Residue numbers refer to the chain shown, from its start. Names and notes keep the numbering of the source. Values joined by “and” are separate entries in the source; they are usually repeats but may differ in a detail not shown here. Identical values can stand only once.
Experiments:
[1] = molecular target: the molecule itself; test: SEC-MALS + other: SAXS; A. aeolicus MnmG alone; SEC-MALS shows mainly monomer and a minor dimer peak; SAXS with online HPLC gel filtration on the dimer peak
[2] = molecular target: the molecule itself; test: SAXS + SEC-MALS; E. coli MnmE without nucleotides; SAXS in batch mode, 20 mM Hepes pH 7.5, 150 mM KCl, 5 mM MgCl2, 2 mM DTT; molecular weight from SAXS and SEC-MALS
[3] = molecular target: T1, MnmG from Escherichia coli, wild type (Escherichia coli, UniProt P0A6U3 1-629); test: SAXS + SEC-MALS; E. coli MnmE and MnmG mixed equimolar without nucleotides, complex purified by gel filtration; SAXS with online HPLC; molecular weight from SAXS and SEC-MALS; conditions: both partners purified
T1 construct: tRNA uridine 5-carboxymethylaminomethyl modification enzyme MnmG (formerly GidA), Escherichia coli; open reading frame cloned in a pET14b vector; Homodimer of 70-kDa subunits; also called GidA; MnmG wt
T1 sequence (looked up): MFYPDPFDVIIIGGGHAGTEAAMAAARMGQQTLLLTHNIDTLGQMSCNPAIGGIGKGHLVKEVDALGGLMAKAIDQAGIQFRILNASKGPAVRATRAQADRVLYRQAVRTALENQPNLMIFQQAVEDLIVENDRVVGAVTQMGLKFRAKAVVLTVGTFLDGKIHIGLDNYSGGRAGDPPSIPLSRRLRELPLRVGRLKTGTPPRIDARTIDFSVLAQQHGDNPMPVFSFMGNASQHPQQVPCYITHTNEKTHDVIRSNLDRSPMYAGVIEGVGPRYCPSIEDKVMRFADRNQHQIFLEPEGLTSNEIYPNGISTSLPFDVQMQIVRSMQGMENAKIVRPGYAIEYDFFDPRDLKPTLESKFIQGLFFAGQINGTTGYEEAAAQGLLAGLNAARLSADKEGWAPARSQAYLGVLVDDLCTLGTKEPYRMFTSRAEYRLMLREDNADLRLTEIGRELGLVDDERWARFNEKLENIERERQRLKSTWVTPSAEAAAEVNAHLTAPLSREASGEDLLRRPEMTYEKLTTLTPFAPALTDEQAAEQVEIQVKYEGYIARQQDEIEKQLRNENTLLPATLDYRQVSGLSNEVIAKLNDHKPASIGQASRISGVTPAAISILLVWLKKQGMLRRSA

[4] = molecular target: T1, MnmG from Escherichia coli, wild type; test: SAXS + SEC-MALS; MnmE-GDP-AlFx mixed in 2-fold molar excess with MnmG; SAXS with online HPLC; molecular weight from SAXS and SEC-MALS; conditions: both partners purified
[5] = molecular target: T1, MnmG from Escherichia coli, wild type; test: ITC; 278 K; 20 mM Hepes pH 7.5, 150 mM NaCl, 5 mM MgCl2, 2 mM BME, 1 mM FAD; 15 uM in the cell, 300 uM in the syringe; titrated in both directions; one site model; apparent; conditions: both partners purified
[6] = molecular target: T1, MnmG from Escherichia coli, wild type; test: SEC; analytical gel filtration of 66.7 uM MnmE(E282A)-MnmG complex mixed with 100 uM GTP, aliquots between 0 min and 24 h; 20 mM Hepes pH 7.5, 150 mM KCl, 5 mM MgCl2, 2 mM DTT; conditions: both partners purified
[7] = molecular target: T1, MnmG from Escherichia coli, wild type; test: ITC; 278 K; 20 mM Hepes pH 7.5, 150 mM NaCl, 5 mM MgCl2, 2 mM BME, 1 mM FAD; variants: 700 uM MnmE in the syringe into 50 uM MnmG in the cell and vice versa; one site model; apparent; conditions: both partners purified

B1: MnmG from Aquifex aeolicus (enzyme, UniProt O66962 1-617, looked up)
chain: MAWVVDEFDVVVIGGGHAGIEAALAAARMGAKTAMFVLNADTIGQMSCNPAIGGIAKGIVVREIDALGGEMGKAIDQTGIQFKMLNTRKGKAVQSPRAQADKKRYREYMKKVCENQENLYIKQEEVVDIIVKNNQVVGVRTNLGVEYKTKAVVVTTGTFLNGVIYIGDKMIPGGRLGEPRSEGLSDFYRRFDFPLIRFKTGTPARLDKRTIDFSALEVAPGDDPPPKFSFWTEPVGSYWFPKGKEQVNCWITYTTPKTHEIIRKNLHRTALYGGLIKGIGPRYCPSIEDKIVKFPDKERHQIFLEPEGLDTIEIYPNGLSTSLPEEVQWEMYRSIPGLENVVLIRPAYAIEYDVVPPTELYPTLETKKIRGLFHAGNFNGTTGYEEAAGQGIVAGINAALRAFGKEPIYLRRDESYIGVMIDDLTTKGVTEPYRLFTSRSEYRLYIRQDNAILRLAKLGRELGLLSEEQYKLVKELEREIEKWKEFYKSERVSVAVGGDTRSYSVATLMTMNYTLDDVKEKFGYEVPQHPYVKEEVEIQLKYEPYIERERKLNEKLKKLEDTKIPPDIDYDKIPGLTKEAREKLKKFKPITVGQASRIDGITPAAITALLVYLGKLD
notes: tRNA uridine 5-carboxymethylaminomethyl modification enzyme MnmG, Aquifex aeolicus; open reading frame cloned in a pET28a vector; Mainly a monomer by SEC-MALS, with a minor dimer peak; SAXS was measured on the dimer peak; also called A. aeolicus MnmG; GidA
Q: Which “stoichiometry N” value [1] does the source give for B1 here?
A: 2

B2: MnmE from Escherichia coli, wild type (enzyme, UniProt P25522 1-454, looked up)
chain: MSDNDTIVAQATPPGRGGVGILRISGFKAREVAETVLGKLPKPRYADYLPFKDADGSVLDQGIALWFPGPNSFTGEDVLELQGHGGPVILDLLLKRILTIPGLRIARPGEFSERAFLNDKLDLAQAEAIADLIDASSEQAARSALNSLQGAFSARVNHLVEALTHLRIYVEAAIDFPDEEIDFLSDGKIEAQLNDVIADLDAVRAEARQGSLLREGMKVVIAGRPNAGKSSLLNALAGREAAIVTDIAGTTRDVLREHIHIDGMPLHIIDTAGLREASDEVERIGIERAWQEIEQADRVLFMVDGTTTDAVDPAEIWPEFIARLPAKLPITVVRNKADITGETLGMSEVNGHALIRLSARTGEGVDVLRNHLKQSMGFDTNMEGGFLARRRHLQALEQAAEHLQQGKAQLLGAWAGELLAEELRLAQQNLSEITGEFTSDDLLGRIFSSFCIGK
notes: tRNA modification GTPase MnmE (formerly TrmE), Escherichia coli; open reading frame cloned in a pET20 vector; Homodimer of about 50-kDa subunits; Used nucleotide-free, with GDP-AlFx or with GppNHp depending on the experiment; also called TrmE; MnmE wt
Q: With B2 as the binder, how does the “stoichiometry N” value [2] read?
A: 2

Q: And the “stoichiometry N” value [3]?
A: 1

Q: What about the “stoichiometry N” value [4] of the same binder?
A: 2

Q: And the Kd [5]?
A: 3 µM and 7 µM

Q: What about the “stoichiometry N” value [5] of the same binder?
A: 0.5

B3: MnmE (E282A) (enzyme, Escherichia coli, UniProt P25522 1-454, looked up)
chain: B2 chain with E282A
notes: MnmE, Escherichia coli, slowly GTP-hydrolysing point variant; Variant of m1; also called slow hydrolyzing mutant MnmE (E282A)
Q: Does B3 bind [6]?
A: binds

B4: MnmE (Y169A, D175A and F176A) with additional S153A (enzyme, Escherichia coli, UniProt P25522 1-454, looked up)
chain: B2 chain with S153A, Y169A, D175A, F176A
notes: MnmE, Escherichia coli, point variant made by QuikChange mutagenesis of the pET20 construct; Variant of m6 with Ser153 also changed to alanine
Q: Which “fold decrease in apparent affinity against wild type” value [7] does the source give for B4 here?
A: ≤ 10 fold

From paper PMC4027165, “SAXS analysis of the tRNA-modifying enzyme complex MnmE/MnmG reveals a novel interaction mode and GTP-induced oligomerization” (Nucleic Acids Research, 2014)
